For this experiment, the target named is GST-H486R optineurin (human) (UniProt Q96CV9). As to the kind of experiment: pull-down; GST-optineurin or GST-H486R on glutathione agarose beads incubated 6-8 hours with lysates of HeLa cells transfected with HA-CYLD; anti-HA immunoblot.

In PMC3049778 one finds fold less binding than wild type optineurin data, which are given here for one substance.

Sequence of UniProt Q96CV9 (Q96CV9 whole entry H486R): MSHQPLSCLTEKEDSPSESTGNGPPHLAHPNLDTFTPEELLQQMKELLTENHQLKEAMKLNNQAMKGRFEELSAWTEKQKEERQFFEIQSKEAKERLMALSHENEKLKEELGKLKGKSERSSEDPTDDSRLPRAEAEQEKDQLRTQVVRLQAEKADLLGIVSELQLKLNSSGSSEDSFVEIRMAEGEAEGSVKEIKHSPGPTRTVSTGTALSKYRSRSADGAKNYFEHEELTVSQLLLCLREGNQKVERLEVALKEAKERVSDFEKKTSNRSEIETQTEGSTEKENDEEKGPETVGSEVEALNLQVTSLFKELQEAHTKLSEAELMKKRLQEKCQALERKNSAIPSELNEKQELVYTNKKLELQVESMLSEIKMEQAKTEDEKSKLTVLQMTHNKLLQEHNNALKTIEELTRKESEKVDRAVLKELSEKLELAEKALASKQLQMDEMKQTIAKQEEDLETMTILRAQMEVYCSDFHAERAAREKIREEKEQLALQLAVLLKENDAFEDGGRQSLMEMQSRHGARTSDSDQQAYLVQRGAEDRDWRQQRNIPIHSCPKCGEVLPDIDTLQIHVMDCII

Substance “HA-tagged CYLD (CYLD cDNA obtained in the yeast two-hybrid screen, in pCDNA3.1-HA) (from UniProt Q9NQC7 403-956) (domain or fragment)” registered a fold less binding than wild type optineurin of 5 fold.
